Data on three substances can be found in paper PMC10095184.

The test system of series [1] is NS5-6xHis AHSV-4 (African horse sickness virus 4). The series can be described thus: pull-down RT-qPCR. (In qPCR the cycle at which signal appears reflects the starting amount.)
The subject of series [2] is NS5-6xHis BTV-1 (Bluetongue virus 1). The series can be described thus: pull-down RT-qPCR.

Consider BTV-1 Seg-1 mRNA, for which the binding signal (Ct (ctrl 14.81)) in series [1] came out at 11.3; in series [2], 10.8. The binding signal (Ct (ctrl 18.09)) in series [1] stood at 11.6; in series [2], 10.9.
In series [1], BTV-1 Seg-3 mRNA returned a binding signal (Ct (ctrl 19.32)) of 11.9 and a binding signal (Ct (ctrl 19.87)) of 11.8. In series [2], this substance returned a binding signal (Ct (ctrl 19.32)) of 11.2 and a binding signal (Ct (ctrl 19.87)) of 11.5.
In the case of BTV-1 Seg-7 mRNA, the binding signal (Ct (ctrl 16.17)) in series [1] is 11.8; in series [2], 11.1. Besides, the figures for the binding signal (Ct (ctrl 16.39)) in series [1] and in series [2] were 10.9 and 10.2, respectively.
